Data: the supplement of paper PMC9112550, “Optimization of the antimicrobial peptide Bac7 by deep mutational scanning” (BMC Biology, 2022)
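Note: peptides expressed intracellularly from a pBAD plasmid library in pooled LB shake-flask culture, induced with 0.3% L-arabinose, DNA abundance read by NGS, three biological replicates, DESeq2 with apeglm shrinkage.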

Each sequence was assayed on Escherichia coli TOP10 (assay: shrunken log2 fold change of peptide-encoding DNA abundance (4.5 h post-induction vs induction); higher = less antimicrobial activity (less host growth inhibition)). Details: time post-induction: 4.5 h; library: site-saturation at positions 5, 18, 19, 20.
In the case of RRIRERPPRLPRPRPRPSFFPRP, the “shrunken log2 fold change” value is reported as 0.221.
With RRIRVRPPRLPRPRPRPGVTPRP the “shrunken log2 fold change” value was 0.0341.
RRIRARPPRLPRPRPRPIVIPRP was tested, and the “shrunken log2 fold change” value was -0.194.
RRIRIRPPRLPRPRPRPFMNPRP was tested, and the “shrunken log2 fold change” value was -0.16.
In the case of RRIRFRPPRLPRPRPRPHGKPRP, the “shrunken log2 fold change” value is reported as -0.0579.
RRIRVRPPRLPRPRPRPDDVPRP was tested, and the “shrunken log2 fold change” value was -0.297.
RRIRWRPPRLPRPRPRPRWGPRP was tested, and the “shrunken log2 fold change” value was 0.534.
In the case of RRIRARPPRLPRPRPRPDGDPRP, the “shrunken log2 fold change” value is reported as -0.036.
With RRIRVRPPRLPRPRPRPYCPPRP the “shrunken log2 fold change” value was -0.462.
For RRIRSRPPRLPRPRPRPGCHPRP, the “shrunken log2 fold change” value was 0.328.
RRIRCRPPRLPRPRPRPKQSPRP was tested, and the “shrunken log2 fold change” value was 0.107.
In the case of RRIRERPPRLPRPRPRPYGMPRP, the “shrunken log2 fold change” value is reported as -0.207.
In the case of RRIRVRPPRLPRPRPRPGMTPRP, the “shrunken log2 fold change” value is reported as 0.177.
RRIRMRPPRLPRPRPRPMNMPRP was tested, and the “shrunken log2 fold change” value was -0.344.
RRIRYRPPRLPRPRPRPHELPRP was tested, and the “shrunken log2 fold change” value was -0.00663.
With RRIRRRPPRLPRPRPRPREEPRP the “shrunken log2 fold change” value was 0.919.
With RRIRHRPPRLPRPRPRPMNQPRP the “shrunken log2 fold change” value was -0.221.
RRIRIRPPRLPRPRPRPMGMPRP was tested, and the “shrunken log2 fold change” value was -0.253.
With RRIRHRPPRLPRPRPRPTSLPRP the “shrunken log2 fold change” value was -0.135.
With RRIRHRPPRLPRPRPRPITDPRP the “shrunken log2 fold change” value was -0.229.
In the case of RRIRVRPPRLPRPRPRPTHDPRP, the “shrunken log2 fold change” value is reported as 0.143.
RRIRCRPPRLPRPRPRPHGKPRP was tested, and the “shrunken log2 fold change” value was -0.15.
RRIRGRPPRLPRPRPRPWTNPRP was tested, and the “shrunken log2 fold change” value was 0.0419.
RRIRHRPPRLPRPRPRPMMYPRP was tested, and the “shrunken log2 fold change” value was -0.0859.
For RRIRHRPPRLPRPRPRPIWWPRP, the “shrunken log2 fold change” value was 0.0995.
RRIRPRPPRLPRPRPRPNGQPRP was tested, and the “shrunken log2 fold change” value was 0.097.
In the case of RRIRQRPPRLPRPRPRPHKFPRP, the “shrunken log2 fold change” value is reported as -0.279.
In the case of RRIRGRPPRLPRPRPRPILMPRP, the “shrunken log2 fold change” value is reported as -0.05.
RRIRKRPPRLPRPRPRPIVKPRP was tested, and the “shrunken log2 fold change” value was -0.158.
RRIRSRPPRLPRPRPRPWNVPRP was tested, and the “shrunken log2 fold change” value was -0.346.
With RRIRYRPPRLPRPRPRPCRHPRP the “shrunken log2 fold change” value was -0.394.
In the case of RRIRLRPPRLPRPRPRPHGIPRP, the “shrunken log2 fold change” value is reported as -0.017.
RRIRSRPPRLPRPRPRPFRGPRP was tested, and the “shrunken log2 fold change” value was -0.242.
RRIRSRPPRLPRPRPRPSDNPRP was tested, and the “shrunken log2 fold change” value was -0.249.
In the case of RRIRSRPPRLPRPRPRPENWPRP, the “shrunken log2 fold change” value is reported as -0.0386.
With RRIRARPPRLPRPRPRPFRGPRP the “shrunken log2 fold change” value was -0.0013.
In the case of RRIRIRPPRLPRPRPRPEQAPRP, the “shrunken log2 fold change” value is reported as 0.1.
RRIRLRPPRLPRPRPRPAWRPRP was tested, and the “shrunken log2 fold change” value was 0.454.
RRIRKRPPRLPRPRPRPTDHPRP was tested, and the “shrunken log2 fold change” value was 0.375.
RRIRGRPPRLPRPRPRPGFNPRP was tested, and the “shrunken log2 fold change” value was 0.235.
RRIRDRPPRLPRPRPRPATEPRP was tested, and the “shrunken log2 fold change” value was 0.646.
In the case of RRIRHRPPRLPRPRPRPKYDPRP, the “shrunken log2 fold change” value is reported as -0.246.
For RRIRCRPPRLPRPRPRPWGFPRP, the “shrunken log2 fold change” value was 0.248.
With RRIRARPPRLPRPRPRPMYFPRP the “shrunken log2 fold change” value was -0.154.
In the case of RRIRKRPPRLPRPRPRPQLDPRP, the “shrunken log2 fold change” value is reported as 0.207.
With RRIRQRPPRLPRPRPRPISSPRP the “shrunken log2 fold change” value was 0.00776.
For RRIRTRPPRLPRPRPRPEGKPRP, the “shrunken log2 fold change” value was 0.0733.
With RRIRRRPPRLPRPRPRPTPEPRP the “shrunken log2 fold change” value was 0.572.
With RRIRKRPPRLPRPRPRPKKLPRP the “shrunken log2 fold change” value was 0.16.
In the case of RRIRDRPPRLPRPRPRPMLHPRP, the “shrunken log2 fold change” value is reported as 0.202.
For RRIRYRPPRLPRPRPRPAVDPRP, the “shrunken log2 fold change” value was -0.0338.
RRIRARPPRLPRPRPRPIINPRP was tested, and the “shrunken log2 fold change” value was -0.174.
With RRIRQRPPRLPRPRPRPPVAPRP the “shrunken log2 fold change” value was 0.121.
In the case of RRIRRRPPRLPRPRPRPGIQPRP, the “shrunken log2 fold change” value is reported as 0.0906.
In the case of RRIRHRPPRLPRPRPRPIGTPRP, the “shrunken log2 fold change” value is reported as -0.0693.
In the case of RRIRTRPPRLPRPRPRPENQPRP, the “shrunken log2 fold change” value is reported as 0.0593.
RRIRVRPPRLPRPRPRPADSPRP was tested, and the “shrunken log2 fold change” value was -0.0859.
In the case of RRIRARPPRLPRPRPRPYPYPRP, the “shrunken log2 fold change” value is reported as -0.152.
For RRIRARPPRLPRPRPRPNICPRP, the “shrunken log2 fold change” value was -0.0618.
For RRIRYRPPRLPRPRPRPAIPPRP, the “shrunken log2 fold change” value was -0.66.
RRIRERPPRLPRPRPRPKTKPRP was tested, and the “shrunken log2 fold change” value was -0.00738.
In the case of RRIRSRPPRLPRPRPRPCIQPRP, the “shrunken log2 fold change” value is reported as -0.175.
With RRIRIRPPRLPRPRPRPTQHPRP the “shrunken log2 fold change” value was 0.0549.
For RRIRRRPPRLPRPRPRPHWYPRP, the “shrunken log2 fold change” value was -0.404.
RRIRARPPRLPRPRPRPPEKPRP was tested, and the “shrunken log2 fold change” value was 0.611.
For RRIRGRPPRLPRPRPRPFDRPRP, the “shrunken log2 fold change” value was 0.0386.
RRIRTRPPRLPRPRPRPEALPRP was tested, and the “shrunken log2 fold change” value was 0.0496.
In the case of RRIRQRPPRLPRPRPRPQHYPRP, the “shrunken log2 fold change” value is reported as -0.447.
In the case of RRIRHRPPRLPRPRPRPMYCPRP, the “shrunken log2 fold change” value is reported as -0.125.
In the case of RRIRYRPPRLPRPRPRPIPIPRP, the “shrunken log2 fold change” value is reported as -0.168.
In the case of RRIRPRPPRLPRPRPRPKELPRP, the “shrunken log2 fold change” value is reported as 0.0936.
For RRIRTRPPRLPRPRPRPHLLPRP, the “shrunken log2 fold change” value was -0.411.
With RRIRARPPRLPRPRPRPPRAPRP the “shrunken log2 fold change” value was 0.932.
In the case of RRIRDRPPRLPRPRPRPTWHPRP, the “shrunken log2 fold change” value is reported as 0.376.
RRIRIRPPRLPRPRPRPHHRPRP was tested, and the “shrunken log2 fold change” value was -0.46.
